In one series the target is T1, YTHDF2 (Homo sapiens, UniProt Q9Y5A9 385-576).
T1 sequence: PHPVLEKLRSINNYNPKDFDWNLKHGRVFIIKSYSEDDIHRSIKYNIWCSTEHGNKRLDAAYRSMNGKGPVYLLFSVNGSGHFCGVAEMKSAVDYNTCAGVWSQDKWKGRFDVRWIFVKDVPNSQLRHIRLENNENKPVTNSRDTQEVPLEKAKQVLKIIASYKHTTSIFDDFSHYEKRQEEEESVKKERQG
As to the kind of experiment: EMSA; 1 mM MgCl2; up to 5 uM protein; MST: 50 mM Tris pH 7.5, 150 mM NaCl, 0.05% Tween 20, 25 C; EMSA: 10 mM HEPES pH 7.3, 5% glycerol, 20 mM KCl, 1 mM MgCl2, 1 mM DTT, RNasin, 4 nM RNA, 4 C. As to conditions: protein: recombinant; tags: GST (pGEX-6P-1); label: 3' biotin; random coil single strand.

Series [1] addresses T2, ALKBH5 (Homo sapiens, UniProt Q6P6C2 66-292). Description: MST (label-free); 1 mM MnCl2, NOG presumably as for FTO; MST: 50 mM Tris pH 7.5, 150 mM NaCl, 0.05% Tween 20, 25 C; EMSA: 10 mM HEPES pH 7.3, 5% glycerol, 20 mM KCl, 1 mM MgCl2, 1 mM DTT, RNasin, 4 nM RNA, 4 C. Conditions: protein: recombinant, tags: His6 (pNIC28-Bsa4). A general note: A gel shift assay detects complexes by their altered migration in electrophoresis.

The target in series [2] is T3, FTO (Homo sapiens, UniProt Q9C0B1 1-505). Description: MST (label-free); 1 mM NiSO4, 500 uM NOG; MST: 50 mM Tris pH 7.5, 150 mM NaCl, 0.05% Tween 20, 25 C; EMSA: 10 mM HEPES pH 7.3, 5% glycerol, 20 mM KCl, 1 mM MgCl2, 1 mM DTT, RNasin, 4 nM RNA, 4 C. Conditions: protein: recombinant, tags: His6 (pNIC28-Bsa4).
Series [3] has as its target T3, FTO. Description: EMSA; 1 mM MgCl2; no binding at 1250-fold excess protein (5 uM); MST: 50 mM Tris pH 7.5, 150 mM NaCl, 0.05% Tween 20, 25 C; EMSA: 10 mM HEPES pH 7.3, 5% glycerol, 20 mM KCl, 1 mM MgCl2, 1 mM DTT, RNasin, 4 nM RNA, 4 C. Conditions: protein: recombinant; tags: His6 (pNIC28-Bsa4); label: 3' biotin; blunt self-complementary duplex, 2 copies of one strand.

The target in series [4] is T2, ALKBH5. The description is as above. Conditions: protein: recombinant; tags: His6 (pNIC28-Bsa4); label: 3' biotin; blunt self-complementary duplex, 2 copies of one strand.

T3 sequence (Q9C0B1 whole entry): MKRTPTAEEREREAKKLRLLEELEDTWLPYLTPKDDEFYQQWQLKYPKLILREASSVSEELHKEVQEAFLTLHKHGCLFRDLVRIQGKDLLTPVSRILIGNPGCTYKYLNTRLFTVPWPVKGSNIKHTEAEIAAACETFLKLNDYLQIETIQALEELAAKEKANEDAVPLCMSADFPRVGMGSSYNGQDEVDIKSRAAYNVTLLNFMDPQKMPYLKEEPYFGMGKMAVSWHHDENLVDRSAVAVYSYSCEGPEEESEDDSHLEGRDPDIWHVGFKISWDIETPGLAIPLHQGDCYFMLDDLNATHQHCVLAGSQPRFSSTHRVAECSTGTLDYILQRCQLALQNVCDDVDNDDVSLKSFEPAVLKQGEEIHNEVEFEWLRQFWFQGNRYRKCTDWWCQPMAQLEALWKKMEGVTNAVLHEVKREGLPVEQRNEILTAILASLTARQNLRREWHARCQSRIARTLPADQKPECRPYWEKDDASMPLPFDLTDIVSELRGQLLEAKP
T2 sequence (Q6P6C2 66-292): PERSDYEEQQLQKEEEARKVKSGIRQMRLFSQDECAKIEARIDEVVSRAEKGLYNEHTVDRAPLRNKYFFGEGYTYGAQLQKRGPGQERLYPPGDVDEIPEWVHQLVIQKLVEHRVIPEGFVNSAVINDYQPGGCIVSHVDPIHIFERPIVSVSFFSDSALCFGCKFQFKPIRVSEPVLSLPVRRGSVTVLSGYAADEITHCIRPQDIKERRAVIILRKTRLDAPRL

Turning to GCGGACUCCAGAUG (ssRNA, m6A at position 5) [biotin-11], the binding result with YTHDF2 is reported as “binds”.

GCGGACUCCAGAUG (ssRNA, m6A at position 5) [11]: the Kd (usually the equilibrium constant for the complex coming apart) was 52.9 ± 2.21 µM with ALKBH5 [1] (random coil single strand) and 97.1 ± 6.66 µM in the series with FTO [2] (random coil single strand).

B1: biotin-15 (dsRNA)
RNA 1: GCGGACUAGUCCGC
RNA 2: GCGGACUAGUCCGC
modifications: m6A at position 5 of each strand
On to B1, for which the binding result with FTO [3] and in the series with ALKBH5 [4] was “no binding” each time.

Take GCGGACUCCACCGC (structured_RNA, m6A at position 5) [25]: the Kd with ALKBH5 [1] (hairpin) is 75.3 ± 2.01 µM; with FTO [2] (hairpin), 91.3 ± 4.65 µM.
